B1: BAG family molecular chaperone regulator 5 (Rattus norvegicus (Rat)), Q5QJC9 (parent)
chain: MDMGNQHPSISRLQEIQREVKSIEQQVVGFSGLSDDKNYKRLERILTKQLFEIDSVDTEGKGDIQQARKRAAQDTERLLKELEQNANHPHRIEIKNIFQEAQALVKEKTVPFYSGSNCVTSEFEEAIQDIILRLTHVKTGGKISLRKARYHTLTKICAVQEIIEDCVRKQPSLPLSEDVHPSVAKINSVMCEVNKARGTLIALLMGVDSSETCRHLSCVLSGLMADLDALDVCGRTEIRNYRREVVEDINKLLKYLDLEEEADNTHAFDLGQNHSIIKIENVLKRMREMKNELLQAQSPPELYLRSKTELQGLIGQLDEVSLEKNPCIREARRRAVIEVQTLITYLDLKEALEKRKLFPCEETPPHKAVWNVLGNLSEIQGEVLSFGGNRTDKNYIRLEELLTKQLLTLDAVDPLGEEKCKAARKQAVKLAQNILSYLDMKSDEWEY

Variants of: B1
Details: with chip_human STUB1, Q9UNE7
Sequence of chip_human STUB1, Q9UNE7 (Q9UNE7 whole entry): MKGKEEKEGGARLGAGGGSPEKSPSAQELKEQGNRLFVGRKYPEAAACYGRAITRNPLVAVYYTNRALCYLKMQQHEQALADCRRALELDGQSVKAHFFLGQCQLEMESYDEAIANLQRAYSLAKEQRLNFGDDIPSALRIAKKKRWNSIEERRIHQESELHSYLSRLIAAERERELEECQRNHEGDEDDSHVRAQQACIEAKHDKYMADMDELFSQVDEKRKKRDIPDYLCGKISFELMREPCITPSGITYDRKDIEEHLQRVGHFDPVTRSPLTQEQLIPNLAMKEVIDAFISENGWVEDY

Variant	effect of a mutation on the interaction
D54A;R68A;D228A;R242A;D318A;R332A;D410A;R424A	disrupting interaction

— IntAct's records for PubMed 21358815
